Source: doi:10.1101/2020.08.20.256677v1 (biorxiv, 2020)

B1: DnfA (Alcaligenes ammonioxydans) (protein)
chain: MTIKSYETDDAVRNMLQKLSVLWKNRAAVNQELPDYNNLAFDPNKADFSECLLPFREHQAWLEAPEELKSQCLSYAWGIYNLKTIYVECNVVTPSCEDIIKTPPPSANRNLLQDVMSQALLDEALHTRMSIMACNYIYSMRGLQPLDFTNFNLVQWRNDILSQCSSESERRLTRFAIACASETLITDYLKTMAEDKSIQTICHEVTRTHAMDEWSHSSVFSFVASDIIHGLSQKEREHMRAVILRTVEMFANNEMGAWEKVFSMVNFPNARDILHDTGDSNEIGVYTGSVESLIERIGLNSKSGQAQAQDEQQEALQ

How the values were obtained:
DnfA = DnfA (Alcaligenes ammonioxydans, UniProt A0ABX8SXK4); experiment: biochemical
purified protein = substrate: NO; experiment: purified protein; settings: 480 μM FAD, 10 mM NADH, 21% O2, 0.6 μM DnfA, 30 °C, 25-400 μM NH2OH

| Molecule | Kd (DnfA) [nM] | Km (purified protein) [µM] | kcat (purified protein) [s⁻¹] |
| --- | --- | --- | --- |
| NO [hydroxylamine] | 160 ± 20 |  |  |
| B1 |  | 48.1 ± 6.0 | 0.31 ± 0.02 |
